Results from publication PMC10397247.
Each block holds one binder with its values, some of them ahead of it.

Legend:
P1bHq = molecular target: T1, P1bHq; test: two-hybrid library CCNG1;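 also: natural log of median RNA to DNA barcode read ratio; higher means stronger binding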
T1 chain: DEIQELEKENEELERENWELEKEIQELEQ

P2bHq = molecular target: T2, P2bHq; test: two-hybrid library CCNG1;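 also: natural log of median RNA to DNA barcode read ratio; higher means stronger binding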
T2 chain: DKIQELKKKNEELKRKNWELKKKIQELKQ

P3bHq = molecular target: T3, P3bHq; test: two-hybrid library CCNG1;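 also: natural log of median RNA to DNA barcode read ratio; higher means stronger binding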
T3 chain: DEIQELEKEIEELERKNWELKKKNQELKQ

P4bHq = molecular target: T4, P4bHq; test: two-hybrid library CCNG1;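 also: natural log of median RNA to DNA barcode read ratio; higher means stronger binding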
T4 chain: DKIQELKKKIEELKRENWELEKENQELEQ

P5bHq = molecular target: T5, P5bHq; test: two-hybrid library CCNG1;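 also: natural log of median RNA to DNA barcode read ratio; higher means stronger binding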
T5 chain: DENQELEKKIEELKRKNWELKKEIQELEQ

P6bHq = molecular target: T6, P6bHq; test: two-hybrid library CCNG1;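 also: natural log of median RNA to DNA barcode read ratio; higher means stronger binding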
T6 chain: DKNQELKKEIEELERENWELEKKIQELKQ

P7bHq = molecular target: T7, P7bHq; test: two-hybrid library CCNG1
T7 chain: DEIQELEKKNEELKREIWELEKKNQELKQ

P8bHq = molecular target: T8, P8bHq; test: two-hybrid library CCNG1
T8 chain: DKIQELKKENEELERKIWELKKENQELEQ

P9bHq = molecular target: T9, P9bHq; test: two-hybrid library CCNG1
T9 chain: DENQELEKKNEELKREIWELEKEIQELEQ

4H2568-bH = molecular target: T10, 4H2568-bH; test: two-hybrid library CCNG1
T10 chain: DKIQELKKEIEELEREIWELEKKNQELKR

4H2619-bH = molecular target: T11, 4H2619-bH; test: two-hybrid library CCNG1
T11 chain: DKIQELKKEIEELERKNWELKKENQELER

4H2745-bH = molecular target: T12, 4H2745-bH; test: two-hybrid library CCNG1
T12 chain: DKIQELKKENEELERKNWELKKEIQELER

4H3189-bA = molecular target: T13, 4H3189-bA; test: two-hybrid library CCNG1
T13 chain: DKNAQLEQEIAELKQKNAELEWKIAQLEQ

4H344-bH = molecular target: T14, 4H344-bH; test: two-hybrid library CCNG1
T14 chain: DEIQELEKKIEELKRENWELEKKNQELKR

4H363-bH = molecular target: T15, 4H363-bH; test: two-hybrid library CCNG1
T15 chain: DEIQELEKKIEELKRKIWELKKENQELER

4H3907-bH = molecular target: T16, 4H3907-bH; test: two-hybrid library CCNG1
T16 chain: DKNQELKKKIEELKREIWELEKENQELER

4H3961-bH = molecular target: T17, 4H3961-bH; test: two-hybrid library CCNG1
T17 chain: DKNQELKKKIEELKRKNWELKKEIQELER

4H470-bH = molecular target: T18, 4H470-bH; test: two-hybrid library CCNG1
T18 chain: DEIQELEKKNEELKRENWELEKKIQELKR

O11-bN = molecular target: T19, O11-bN; test: two-hybrid library CCNG1
T19 chain: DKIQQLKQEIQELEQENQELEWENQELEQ

O12-bN = molecular target: T20, O12-bN; test: two-hybrid library CCNG1
T20 chain: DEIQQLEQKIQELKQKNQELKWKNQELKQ

O13-bN = molecular target: T21, O13-bN; test: two-hybrid library CCNG1
T21 chain: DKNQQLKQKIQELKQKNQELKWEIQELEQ

O14-bN = molecular target: T22, O14-bN; test: two-hybrid library CCNG1
T22 chain: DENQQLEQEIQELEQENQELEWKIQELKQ

O15-bN = molecular target: T23, O15-bN; test: two-hybrid library CCNG1
T23 chain: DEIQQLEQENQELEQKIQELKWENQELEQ

O16-bN = molecular target: T24, O16-bN; test: two-hybrid library CCNG1
T24 chain: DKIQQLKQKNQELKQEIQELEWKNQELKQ

O2-bN = molecular target: T25, O2-bN; test: two-hybrid library CCNG1
T25 chain: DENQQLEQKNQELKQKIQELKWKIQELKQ

O3-bN = molecular target: T26, O3-bN; test: two-hybrid library CCNG1
T26 chain: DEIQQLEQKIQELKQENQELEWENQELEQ

O4-bN = molecular target: T27, O4-bN; test: two-hybrid library CCNG1
T27 chain: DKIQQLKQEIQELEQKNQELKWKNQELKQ

O5-bN = molecular target: T28, O5-bN; test: two-hybrid library CCNG1
T28 chain: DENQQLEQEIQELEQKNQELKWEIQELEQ

O6-bN = molecular target: T29, O6-bN; test: two-hybrid library CCNG1
T29 chain: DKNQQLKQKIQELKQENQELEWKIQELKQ

O7-bN = molecular target: T30, O7-bN; test: two-hybrid library CCNG1
T30 chain: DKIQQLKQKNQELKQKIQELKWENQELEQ

O8-bN = molecular target: T31, O8-bN; test: two-hybrid library CCNG1
T31 chain: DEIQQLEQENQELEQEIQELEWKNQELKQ

O9-bN = molecular target: T32, O9-bN; test: two-hybrid library CCNG1
T32 chain: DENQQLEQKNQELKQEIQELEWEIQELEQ

4H2473-bA = molecular target: T33, 4H2473-bA; test: two-hybrid library CCNG1
T33 chain: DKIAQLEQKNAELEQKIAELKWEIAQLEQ

4H2503-bA = molecular target: T34, 4H2503-bA; test: two-hybrid library CCNG1
T34 chain: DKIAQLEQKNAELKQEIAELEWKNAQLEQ

4H2588-bA = molecular target: T35, 4H2588-bA; test: two-hybrid library CCNG1
T35 chain: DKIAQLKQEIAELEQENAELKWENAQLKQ

4H2692-bA = molecular target: T36, 4H2692-bA; test: two-hybrid library CCNG1
T36 chain: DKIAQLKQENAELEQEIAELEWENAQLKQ

4H2717-bA = molecular target: T37, 4H2717-bA; test: two-hybrid library CCNG1
T37 chain: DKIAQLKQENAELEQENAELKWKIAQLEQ

4H2839-bA = molecular target: T38, 4H2839-bA; test: two-hybrid library CCNG1
T38 chain: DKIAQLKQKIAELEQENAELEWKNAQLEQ

4H2915-bA = molecular target: T39, 4H2915-bA; test: two-hybrid library CCNG1
T39 chain: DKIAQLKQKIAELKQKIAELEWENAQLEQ

4H3057-bA = molecular target: T40, 4H3057-bA; test: two-hybrid library CCNG1
T40 chain: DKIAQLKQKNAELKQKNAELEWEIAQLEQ

4H319-bA = molecular target: T41, 4H319-bA; test: two-hybrid library CCNG1
T41 chain: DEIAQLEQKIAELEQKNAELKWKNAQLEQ

4H3277-bA = molecular target: T42, 4H3277-bA; test: two-hybrid library CCNG1
T42 chain: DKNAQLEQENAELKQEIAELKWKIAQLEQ

4H348-bA = molecular target: T43, 4H348-bA; test: two-hybrid library CCNG1
T43 chain: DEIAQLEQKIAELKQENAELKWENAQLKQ

4H40-bA = molecular target: T44, 4H40-bA; test: two-hybrid library CCNG1
T44 chain: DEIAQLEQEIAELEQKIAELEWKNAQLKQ

4H477-bA = molecular target: T45, 4H477-bA; test: two-hybrid library CCNG1
T45 chain: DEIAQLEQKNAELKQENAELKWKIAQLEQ

4H492-bA = molecular target: T46, 4H492-bA; test: two-hybrid library CCNG1
T46 chain: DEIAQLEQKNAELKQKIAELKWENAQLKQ

4H741-bA = molecular target: T47, 4H741-bA; test: two-hybrid library CCNG1
T47 chain: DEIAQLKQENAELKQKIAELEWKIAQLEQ

P11A-bS = molecular target: T48, P11A-bS; test: two-hybrid library CCNG1
T48 chain: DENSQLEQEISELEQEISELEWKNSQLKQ

P3 = molecular target: T49, P3; test: two-hybrid library CC1
T49 chain: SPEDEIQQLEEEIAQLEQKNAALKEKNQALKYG

P3mS = molecular target: T50, P3mS; test: two-hybrid library CC1; conditions: mean of both orientations
T50 chain: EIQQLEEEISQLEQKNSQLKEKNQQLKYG

P4 = molecular target: T51, P4; test: two-hybrid library CC1; conditions: mean of both orientations
T51 chain: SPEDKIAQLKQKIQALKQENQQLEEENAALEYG

P4mS = molecular target: T52, P4mS; test: two-hybrid library CC1; conditions: mean of both orientations
T52 chain: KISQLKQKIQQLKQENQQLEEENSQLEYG

P5SC1 = molecular target: T53, P5SC1; test: two-hybrid library CC1; conditions: mean of both orientations
T53 chain: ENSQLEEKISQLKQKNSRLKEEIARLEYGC

P5SC2 = molecular target: T54, P5SC2; test: two-hybrid library CC1; conditions: mean of both orientations
T54 chain: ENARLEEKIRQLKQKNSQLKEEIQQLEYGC

P5 = molecular target: T55, P5; test: two-hybrid library CC1; conditions: mean of both orientations
T55 chain: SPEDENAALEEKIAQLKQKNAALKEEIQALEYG

P5mS = molecular target: T56, P5mS; test: two-hybrid library CC1; conditions: mean of both orientations
T56 chain: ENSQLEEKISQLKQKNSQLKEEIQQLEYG

P6SC1 = molecular target: T57, P6SC1; test: two-hybrid library CC1; conditions: mean of both orientations
T57 chain: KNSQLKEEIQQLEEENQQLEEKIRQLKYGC

P6SC2 = molecular target: T58, P6SC2; test: two-hybrid library CC1; conditions: mean of both orientations
T58 chain: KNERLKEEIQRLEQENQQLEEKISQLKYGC

P6 = molecular target: T59, P6; test: two-hybrid library CC1; conditions: mean of both orientations
T59 chain: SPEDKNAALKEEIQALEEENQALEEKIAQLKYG

P6mS = molecular target: T60, P6mS; test: two-hybrid library CC1; conditions: mean of both orientations
T60 chain: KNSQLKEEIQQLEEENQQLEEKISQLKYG

P7 = molecular target: T61, P7; test: two-hybrid library CC1; conditions: mean of both orientations
T61 chain: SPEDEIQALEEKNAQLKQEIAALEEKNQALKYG

P7mS = molecular target: T62, P7mS; test: two-hybrid library CC1; conditions: mean of both orientations
T62 chain: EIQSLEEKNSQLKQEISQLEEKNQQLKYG

P8 = molecular target: T63, P8; test: two-hybrid library CC1; conditions: mean of both orientations
T63 chain: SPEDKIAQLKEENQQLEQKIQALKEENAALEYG

P8mS = molecular target: T64, P8mS; test: two-hybrid library CC1; conditions: mean of both orientations
T64 chain: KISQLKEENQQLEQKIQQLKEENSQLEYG

P9 = molecular target: T65, P9; test: two-hybrid library CC1; conditions: mean of both orientations
T65 chain: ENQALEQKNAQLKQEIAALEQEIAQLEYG

Binder: DEIQELEKENEELERENWELEKEIQELEQ [P1bHq]
interaction score (P1bHq): -0.606
interaction score (P2bHq): 1.87
interaction score (P3bHq): -1.03
interaction score (P4bHq): -0.52
interaction score (P5bHq): -0.887
interaction score (P6bHq): -0.273
interaction score (P7bHq): -0.288
interaction score (P8bHq): -0.272
interaction score (P9bHq): -1.78

Binder: DKIQELKKEIEELEREIWELEKKNQELKR [4H2568-bH]
interaction score (4H2568-bH): 2.17
interaction score (4H2619-bH): 1.65
interaction score (4H2745-bH): -0.189
interaction score (4H3189-bA): 0.615
interaction score (4H344-bH): 0.802
interaction score (4H363-bH): 1.72
interaction score (4H3907-bH): 1.31
interaction score (4H3961-bH): 2.42
interaction score (4H470-bH): -1.26

Binder: DKIAQLEQKNAELEQKIAELKWEIAQLEQ [4H2473-bA]
interaction score (4H2473-bA): 0.144
interaction score (4H2503-bA): 0.82
interaction score (4H2588-bA): -1.02
interaction score (4H2692-bA): 0.426
interaction score (4H2717-bA): -0.42
interaction score (4H2839-bA): -0.648
interaction score (4H2915-bA): 0.904
interaction score (4H3057-bA): 0.511
interaction score (4H319-bA): -0.981
interaction score (4H3277-bA): -1.53
interaction score (4H348-bA): -1.44
interaction score (4H40-bA): -0.325
interaction score (4H477-bA): -0.946
interaction score (4H492-bA): -1.09
interaction score (4H741-bA): -1.42
interaction score (P11A-bS): -0.676

Binder: SPEDEIQQLEEEIAQLEQKNAALKEKNQALKYG [P3]
interaction score (P3): -2.65
interaction score (P3mS): -2.89
interaction score (P4): 0.154
interaction score (P4mS): 0.336
interaction score (P5SC1): -2.58
interaction score (P5SC2): -2.4
interaction score (P5): -2.66
interaction score (P5mS): -2.66
interaction score (P6SC1): -2.57
interaction score (P6SC2): -2.04
interaction score (P6): -2.59
interaction score (P6mS): -2.79
interaction score (P7): -2.61
interaction score (P7mS): -2.58
interaction score (P8): -2.6
interaction score (P8mS): -2.7
interaction score (P9): -2.09

Second part, the binder after the results:

interaction score (O11-bN): -0.191
interaction score (O12-bN): 0.971
interaction score (O13-bN): -0.808
interaction score (O14-bN): -0.639
interaction score (O15-bN): -0.577
interaction score (O16-bN): -1.91
interaction score (O2-bN): -0.23
interaction score (O3-bN): -0.437
interaction score (O4-bN): 0.401
interaction score (O5-bN): -1.06
interaction score (O6-bN): -0.927
interaction score (O7-bN): -1.3
interaction score (O8-bN): -1.26
interaction score (O9-bN): -0.813
Binder: DKIQQLKQEIQELEQENQELEWENQELEQ [O11-bN]

interaction score (O12-bN): -0.0253
interaction score (O13-bN): -0.316
interaction score (O14-bN): -0.704
interaction score (O15-bN): -0.511
interaction score (O16-bN): -0.487
interaction score (O2-bN): -0.846
interaction score (O3-bN): 0.565
interaction score (O4-bN): -0.33
interaction score (O5-bN): -2.82
interaction score (O6-bN): 0.155
interaction score (O7-bN): -0.201
interaction score (O8-bN): 0.0745
interaction score (O9-bN): -0.349
Binder: DEIQQLEQKIQELKQKNQELKWKNQELKQ [O12-bN]
